{
  "source": "patent US20240368668",
  "proteins": {"B1": {"name": "purified full-length mouse ADAMTS7 S3A EQ (catalytic mutant E373Q) (protein)", "chain": "SVAKEKWVETLVVADSKMVEYHGQPQVESYVLTIMNMVAGLFHDPSIGNPIHISIVRLIILEDEEKDLKITHHAEETLKNFCRWQKNINIKGDDHPQHHDTAILLTRKDLCASMNQPCETLGLSHVSGLCHPQLSCSVSEDTGMPLAFTVAHQLGHSFGIQHDGTGNDCESIGKRPFIMSPQLLYDRGIPLTWSRCSREYITRFLDRGWGLCLDDRPSKDVIALPSVLPGVLYDVNHQCRLQYGSHSAYCEDMDDVCHTLWCSVGTTCHSKLDAAVDGTSCGKNKWCLKGECVPEGFQPEAVDGGWSGWSAWSDCSRSCGVGVRSSERQCTQPVPKNRGKYCVGERKRSQLCNLPACPPDRPSFRHTQCSQFDGMLYKGKLHKWVPVPNDDNPCELHCRPSNSSNTEKLRDAVVDGTPCYQSRISRDICLNGICKNVGCDFVIDSGAEEDRCGVCRGDGSTCQTVSRTFKETEGQGYVDIGLIPAGAREILIEEVAEAANFLALRSEDPDKYFLNGGWTIQWNGDYRVAGTTFTYARKGNWENLTSPGPTSEPVWIQLLFQEKNPGVHYQYTIQRDSHDQVRPPEFSWHYGPWSKCTVTCGTGVQRQSLYCMERQAGVVAEEYCNTLNRPDERQRKCSEEPCPPRWWAGEWQPCSRSCGPEGLSRRAVFCIRSMGLDEQRALELSACEHLPRPLAETPCNRHVICPSTWGVGNWSQCSVTCGAGIRQRSVLCINNTDVPCDEAERPITETFCFLQPCQYPMYIVDTGASGSGSSSPELFNEVDFIPNQLAPRPSPASSPKPVSISNAIDEEELDPPGPVFVDDFYYDYNFINFHEDLSYGSFEEPHPDLVDNGGWTAPPHIRPTESPSDTPVPTAGALGAEAEDIQGSWSPSPLLSEASYSPPGLEQTSINPLANFLTEEDTPMGAPELGFPSLPWPPASVDDMMTPVGPGNPDELLVKEDEQSPPSTPWSDRNKLSTDGNPLGHTSPALPQSPIPTQPSPPSISPTQASPSPDVVEVSTGWNAAWDPVLEADLKPGHGELPSTVEVASPPLLPMATVPGIWGRDSPLEPGTPTFSSPELSSQHLKTLTMPGTLLLTVPTDLRSPGPSGQPQTPNLEGTQSPGLLPTPARETQTNSSKDPEVQPLQPSLEEDGDPADPLPARNASWQVGNWSQCSTTCGLGAIWRLVSCSSGNDEDCTLASRPQPARHCHLRPCAAWRTGNWSKCSRNCGGGSSTRDVQCVDTRDLRPLRPFHCQPGPTKPPNRQLCGTQPCLPWYTSSWRECSEACGGGEQQRLVTCPEPGLCEESLRPNNSRPCNTHPCTQWVVGPWGQCSAPCGGGVQRRLVRCVNTQTGLAEEDSDLCSHEAWPESSRPCATEDCELVEPPRCERDRLSFNFCETLRLLGRCQLPTIRAQCCRSCPPLSRGVPSRGHQRVARR"}, "B2": {"name": "full-length mouse Adamts7 1-1857 WT with a carboxyl terminal 3xFLAG tag, expressed from adenovirus (protein)", "chain": "SVSKEKWVETLVVADSKMVEYHGQPQVESYVLTIMNMVAGLFHDPSIGNPIHISIVRLIILEDEEKDLKITHHAEETLKNFCRWQKNINIKGDDHPQHHDTAILLTRKDLCASMNQPCETLGLSHVSGLCHPQLSCSVSEDTGMPLAFTVAHELGHSFGIQHDGTGNDCESIGKRPFIMSPQLLYDRGIPLTWSRCSREYITRFLDRGWGLCLDDRPSKDVIALPSVLPGVLYDVNHQCRLQYGSHSAYCEDMDDVCHTLWCSVGTTCHSKLDAAVDGTSCGKNKWCLKGECVPEGFQPEAVDGGWSGWSAWSDCSRSCGVGVRSSERQCTQPVPKNRGKYCVGERKRSQLCNLPACPPDRPSFRHTQCSQFDGMLYKGKLHKWVPVPNDDNPCELHCRPSNSSNTEKLRDAVVDGTPCYQSRISRDICLNGICKNVGCDFVIDSGAEEDRCGVCRGDGSTCQTVSRTFKETEGQGYVDIGLIPAGAREILIEEVAEAANFLALRSEDPDKYFLNGGWTIQWNGDYRVAGTTFTYARKGNWENLTSPGPTSEPVWIQLLFQEKNPGVHYQYTIQRDSHDQVRPPEFSWHYGPWSKCTVTCGTGVQRQSLYCMERQAGVVAEEYCNTLNRPDERQRKCSEEPCPPRWWAGEWQPCSRSCGPEGLSRRAVFCIRSMGLDEQRALELSACEHLPRPLAETPCNRHVICPSTWGVGNWSQCSVTCGAGIRQRSVLCINNTDVPCDEAERPITETFCFLQPCQYPMYIVDTGASGSGSSSPELFNEVDFIPNQLAPRPSPASSPKPVSISNAIDEEELDPPGPVFVDDFYYDYNFINFHEDLSYGSFEEPHPDLVDNGGWTAPPHIRPTESPSDTPVPTAGALGAEAEDIQGSWSPSPLLSEASYSPPGLEQTSINPLANFLTEEDTPMGAPELGFPSLPWPPASVDDMMTPVGPGNPDELLVKEDEQSPPSTPWSDRNKLSTDGNPLGHTSPALPQSPIPTQPSPPSISPTQASPSPDVVEVSTGWNAAWDPVLEADLKPGHGELPSTVEVASPPLLPMATVPGIWGRDSPLEPGTPTFSSPELSSQHLKTLTMPGTLLLTVPTDLRSPGPSGQPQTPNLEGTQSPGLLPTPARETQTNSSKDPEVQPLQPSLEEDGDPADPLPARNASWQVGNWSQCSTTCGLGAIWRLVSCSSGNDEDCTLASRPQPARHCHLRPCAAWRTGNWSKCSRNCGGGSSTRDVQCVDTRDLRPLRPFHCQPGPTKPPNRQLCGTQPCLPWYTSSWRECSEACGGGEQQRLVTCPEPGLCEESLRPNNSRPCNTHPCTQWVVGPWGQCSAPCGGGVQRRLVRCVNTQTGLAEEDSDLCSHEAWPESSRPCATEDCELVEPPRCERDRLSFNFCETLRLLGRCQLPTIRAQCCRSCPPLSRGVPSRGHQRVARR"}, "B3": {"name": "full-length mouse Adamts7 1-1857 E373Q catalytic mutant with a carboxyl terminal 3xFLAG tag, expressed from adenovirus (protein)", "chain": "SVSKEKWVETLVVADSKMVEYHGQPQVESYVLTIMNMVAGLFHDPSIGNPIHISIVRLIILEDEEKDLKITHHAEETLKNFCRWQKNINIKGDDHPQHHDTAILLTRKDLCASMNQPCETLGLSHVSGLCHPQLSCSVSEDTGMPLAFTVAHQLGHSFGIQHDGTGNDCESIGKRPFIMSPQLLYDRGIPLTWSRCSREYITRFLDRGWGLCLDDRPSKDVIALPSVLPGVLYDVNHQCRLQYGSHSAYCEDMDDVCHTLWCSVGTTCHSKLDAAVDGTSCGKNKWCLKGECVPEGFQPEAVDGGWSGWSAWSDCSRSCGVGVRSSERQCTQPVPKNRGKYCVGERKRSQLCNLPACPPDRPSFRHTQCSQFDGMLYKGKLHKWVPVPNDDNPCELHCRPSNSSNTEKLRDAVVDGTPCYQSRISRDICLNGICKNVGCDFVIDSGAEEDRCGVCRGDGSTCQTVSRTFKETEGQGYVDIGLIPAGAREILIEEVAEAANFLALRSEDPDKYFLNGGWTIQWNGDYRVAGTTFTYARKGNWENLTSPGPTSEPVWIQLLFQEKNPGVHYQYTIQRDSHDQVRPPEFSWHYGPWSKCTVTCGTGVQRQSLYCMERQAGVVAEEYCNTLNRPDERQRKCSEEPCPPRWWAGEWQPCSRSCGPEGLSRRAVFCIRSMGLDEQRALELSACEHLPRPLAETPCNRHVICPSTWGVGNWSQCSVTCGAGIRQRSVLCINNTDVPCDEAERPITETFCFLQPCQYPMYIVDTGASGSGSSSPELFNEVDFIPNQLAPRPSPASSPKPVSISNAIDEEELDPPGPVFVDDFYYDYNFINFHEDLSYGSFEEPHPDLVDNGGWTAPPHIRPTESPSDTPVPTAGALGAEAEDIQGSWSPSPLLSEASYSPPGLEQTSINPLANFLTEEDTPMGAPELGFPSLPWPPASVDDMMTPVGPGNPDELLVKEDEQSPPSTPWSDRNKLSTDGNPLGHTSPALPQSPIPTQPSPPSISPTQASPSPDVVEVSTGWNAAWDPVLEADLKPGHGELPSTVEVASPPLLPMATVPGIWGRDSPLEPGTPTFSSPELSSQHLKTLTMPGTLLLTVPTDLRSPGPSGQPQTPNLEGTQSPGLLPTPARETQTNSSKDPEVQPLQPSLEEDGDPADPLPARNASWQVGNWSQCSTTCGLGAIWRLVSCSSGNDEDCTLASRPQPARHCHLRPCAAWRTGNWSKCSRNCGGGSSTRDVQCVDTRDLRPLRPFHCQPGPTKPPNRQLCGTQPCLPWYTSSWRECSEACGGGEQQRLVTCPEPGLCEESLRPNNSRPCNTHPCTQWVVGPWGQCSAPCGGGVQRRLVRCVNTQTGLAEEDSDLCSHEAWPESSRPCATEDCELVEPPRCERDRLSFNFCETLRLLGRCQLPTIRAQCCRSCPPLSRGVPSRGHQRVARR"}},
  "key": {"[1]": {"target": "T1, purified recombinant human HA-tagged EFEMP1/Fibulin-3 (R&D, 8416-FB), Q12805", "T1 chain": "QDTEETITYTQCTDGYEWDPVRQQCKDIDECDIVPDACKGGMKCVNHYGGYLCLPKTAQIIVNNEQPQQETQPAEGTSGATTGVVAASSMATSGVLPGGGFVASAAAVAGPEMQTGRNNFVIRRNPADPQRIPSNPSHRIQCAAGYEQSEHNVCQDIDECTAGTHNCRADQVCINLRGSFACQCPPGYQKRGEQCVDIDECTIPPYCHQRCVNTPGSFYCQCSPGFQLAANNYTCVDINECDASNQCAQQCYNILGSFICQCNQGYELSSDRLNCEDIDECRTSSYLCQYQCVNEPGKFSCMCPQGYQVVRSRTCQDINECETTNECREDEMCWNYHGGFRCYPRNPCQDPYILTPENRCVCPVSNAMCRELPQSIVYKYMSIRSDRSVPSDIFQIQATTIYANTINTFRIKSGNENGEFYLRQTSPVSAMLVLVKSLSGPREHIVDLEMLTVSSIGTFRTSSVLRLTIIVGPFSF"}, "[2]": {"target": "T2, endogenous EFEMP1 (EGF-containing fibulin-like extracellular matrix protein 1, Fibulin-3) secreted by HUVEC, Q12805", "T2 chain": "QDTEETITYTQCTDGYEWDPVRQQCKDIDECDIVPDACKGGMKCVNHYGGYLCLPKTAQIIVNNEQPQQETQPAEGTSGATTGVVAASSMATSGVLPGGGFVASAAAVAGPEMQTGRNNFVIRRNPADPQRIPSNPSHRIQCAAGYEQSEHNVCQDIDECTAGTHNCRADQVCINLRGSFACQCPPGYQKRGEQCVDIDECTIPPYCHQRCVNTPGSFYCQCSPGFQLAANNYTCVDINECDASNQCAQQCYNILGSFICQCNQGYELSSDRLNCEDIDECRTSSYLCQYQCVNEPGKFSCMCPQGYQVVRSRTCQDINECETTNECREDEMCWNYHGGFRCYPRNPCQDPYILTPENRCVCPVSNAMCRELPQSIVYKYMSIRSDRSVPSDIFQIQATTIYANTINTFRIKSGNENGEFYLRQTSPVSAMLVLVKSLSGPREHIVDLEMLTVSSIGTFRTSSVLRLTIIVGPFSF"}},
  "data": [
    {"protein": "B1", "values": [
      {"measurement": "in vitro cleavage, western blot and mass spectrometry of gel bands", "setting": "[1]", "result": "background cleavage under conditions with no enzyme or with ADAMTS7 S3A EQ treatment, however these occurrences were relatively minor compared to the activity stimulated by ADAMTS7 S3A WT"}
    ]},
    {"protein": "B2", "values": [
      {"measurement": "auto-cleavage, western blot of HUVEC media", "setting": "Q68SA9", "result": "ADAMTS7 WT migrated at two bands matching the observed autocleavage event in the mucin domain"},
      {"measurement": "cleavage of endogenous EFEMP1 in HUVEC media, western blot and mass spectrometry", "setting": "[2]", "result": "identified semi-tryptic and semi-chymotryptic peptides indicating cleavage at 123.124 and 124.125 sites from the Ad-ADAMTS7 WT sample"},
      {"measurement": "relative cleavage at 123.124 against 124.125 (TAILS log FC and total intensities)", "setting": "[2]", "result": "predicting 2-3 fold more cleavage at 123.124 (ASAA|AVAG) (SEQ ID NO: 1) compared to the adjacent 124.125 (SAAA|VAGP) (SEQ ID NO: 2) site"}
    ]},
    {"protein": "B3", "values": [
      {"measurement": "cleavage of endogenous EFEMP1 in HUVEC media, mass spectrometry", "setting": "[2]", "result": "these sites were not detected in the Luc or EQ samples"}
    ]}
  ]
}
